The results in this text go back to US7521536B2, “Glutamate transporter associated protein” (The Johns Hopkins University School of Medicine, priority 1999, dated 2009).

One series concerns GTRAP3-18. As to the kind of experiment: retinoic acid regulation of GTRAP3-18 and EAAC1-mediated glutamate transport in HEK293 cells. The class given is cell-based. From the text: Human GTRAP3-18 (JWA protein) was originally identified as a retinoic acid responsive gene. […] The loss of transport activity is not due to changes in EAAC1 protein level (FIG. 9A) or the cellular membrane localization of EAAC1 protein by retinoic acid as examined by fluorescent microscopy. To confirm that loss of transport activity was specifically due to GTRAP3-18 and not by other factors induced by retinoic acid or direct effects on EAAC1, a truncated EAAC1 cDNA, lacking the last 93 amino acids, was constructed. The truncation corresponded to the region used as bait in yeast two-hybrid screening, and was not able to interact with GTRAP3-18. Nevertheless, after transient expression in HEK293 cells, the truncated EAAC1 transported glutamate. […] Thus, the loss of transport activity by retinoic acid was the result of GTRAP3-18 induction. […] This could reflect lack of natural inhibition of the truncated protein EAAC1 by endogenous GTRAP3-18—results similar to the effects of GTRAP3-18 antisense treatment (FIG. 9E).

Series [1] has as its system EAAT4. As to the kind of experiment: EAAT4 protein level after cycloheximide treatment, densitometry, HEK-rEAAT4 cells. The class given is cell-based, rat. As to conditions: 12 hrs after cycloheximide, GTRAP coexpressed; HEK-rEAAT4 alone 54±0.6%. Here is the method: To examine changes in the cell surface levels of EAAT4, a cell membrane-impermeant biotinylation reagent to label cell surface proteins selectively. Biotinylation of cell surface proteins was performed as described in Duan et al. (Duan, et al., J. Neurosci. 19, 10193-10200 (1999)). SOD1 was used to control for total protein and to determine whether the biotinylation reagent labels proteins in the intracellular compartment. Densitometry was performed using the NIH Image program.
However it is also possible that there is increased expression of the cell's native gene. To address this question cells were treated 48 hrs after transfection with cycloheximide, an inhibitor of protein synthesis. […] In contrast, 81±2% and 74±1.7% of the EAAT4 protein remains after 12 hrs when GTRAP4-41 and GTRAP4-48 are coexpressed, respectively.

The subject of series [2] is EAAT4. As to the kind of experiment: cerebellar glutamate uptake after intra-cisternal injection of HSV amplicon vectors. The class given is in vivo, rat. As to conditions: 48 hrs after intra-cisternal injection of HSV amplicon vector, vs control HSVlac.
The next series has as its target T1, GST-EAAT4 (Rattus norvegicus, UniProt O35921).
T1 construct: Full-length EAAT4 was subcloned into the EcoR I site of the GST-fusion vector pGEX-6P-1 (Pharmacia); made in house; host or cells: E. coli BL21 (Novagen)
T1 sequence (O35921 1-561): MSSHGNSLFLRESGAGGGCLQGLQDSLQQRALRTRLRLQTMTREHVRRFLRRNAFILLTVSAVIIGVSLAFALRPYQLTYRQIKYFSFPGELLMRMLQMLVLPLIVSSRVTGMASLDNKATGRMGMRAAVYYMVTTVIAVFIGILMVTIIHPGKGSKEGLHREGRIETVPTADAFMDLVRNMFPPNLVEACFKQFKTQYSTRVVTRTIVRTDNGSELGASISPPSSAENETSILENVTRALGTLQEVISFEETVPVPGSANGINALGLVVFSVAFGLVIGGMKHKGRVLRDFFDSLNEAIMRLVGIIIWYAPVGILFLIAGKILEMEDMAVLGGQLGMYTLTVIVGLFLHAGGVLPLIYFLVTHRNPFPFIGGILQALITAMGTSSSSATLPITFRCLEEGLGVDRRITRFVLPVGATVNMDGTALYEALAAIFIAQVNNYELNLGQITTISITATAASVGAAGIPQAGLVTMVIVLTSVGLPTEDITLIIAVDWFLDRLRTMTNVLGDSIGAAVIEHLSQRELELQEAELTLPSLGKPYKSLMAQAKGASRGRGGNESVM
As to the kind of experiment: in vitro binding to GST-EAAT4 fusion protein. As to conditions: myc-tagged protein from HEK 293T lysate; no binding to GST. Here is the method: Fusion proteins and in vitro binding. Full-length EAAT4 was subcloned into the EcoR I site of the GST-fusion vector pGEX-6P-1 (Pharmacia). Synthesis of recombinant proteins in BL21 cells (Novagen) was induced by 0.1 mM isopropyl β-D-thiogalactoside for 2 hrs at 30° C. and purified according to the protocol provided by the manufacturer (Pharmacia). HEK 293T cells were transfected with myc-tagged GTRAP4-41 or GTRAP4-48 and harvested in ice-cold immunoprecipitation (IP) buffer (phosphate buffered saline (pH 7.1), 5 mM EDTA, 1 mM sodium orthovanadate, 0.1 mM phenylmethylsulphonyl fluoride (PMSF), 0.3 μM aprotinin and 1% Triton X-100). The cellular lysate was incubated with GST or GST-EAAT4 immobilized on glutathione-Sepharose-4B, and washed to remove non-specifically bound proteins. Specifically bound proteins were eluted with 2×SDS loading buffer and analyzed by immunoblotting using an anti-c-myc antibody.
GTRAP4-41 and 4-48 Immunoprecipitation with Fusion Proteins. Full-length EAAT4 was subcloned into the EcoR I site of the GST-fusion vector pGEX-6P-1 (Pharmacia). […] Specifically bound proteins were eluted with 3×SDS loading buffer and analyzed by immunoblotting using an anti-c-myc antibody. […]

Series [3] has as its target T2, EAAT4 (Rattus norvegicus, UniProt O35921).
T2 sequence (O35921 1-561): T1 sequence (O35921 1-561)
Description: Na+-dependent L-[3H]-glutamate uptake in HEK-rEAAT4 cells transfected with GTRAPs. The class given is cell-based. Also on record: expressed in transfected cells. Here is the method:
To determine function relationships between GTRAPs and glutamate transporter proteins, sodium-dependent, glutamate transport activity was measured in HEK-rEAAT4 cells transfected with one or more interacting proteins.
To determine the effects of GTRAPs on glutamate transport function, Na+-dependent glutamate transport activity was measured in cells stably transfected with EAAT4, EAAC1, or another glutamate transporter protein and one or more interacter proteins. Stably transfected cells were grown in a monolayer on 6-well plates in MEM supplemented with 10% fetal bovine serum and L-glutamine. Assays were conducted when cells reached ˜80% confluency. The wells were pre-rinsed twice with 2 ml of ice-cold tissue buffer (50 mM Tris, 320 mM sucrose, pH 7.4). The cells were then incubated for 4 min at 37° C. with 1 ml of either sodium-(120 mM NaCl, 25 mM NaHCO3, 5 mM KCl, 2 mM CaCl2, 1 mM KH2PO4, 1 mM MgSO4, 10% glucose and […]) or choline-(120 mM choline Cl, 25 mM Tris-HCl pH 7.4, 5 mM KCl, 2 mM CaCl2, 1 mM KH2PO4, 1 mM MgSO4, 10% glucose and […]) containing buffer labeled with L-[^3H]Glu. Uptake was stopped by rinsing three times with 2 ml of ice-cold wash buffer (50 mM Tris pH 7.5 and 160 mM NaCl). Cells were solubilized in 1 ml of 0.1 N NaOH, and […] of lysate was analyzed for radioactivity in a scintillation counter. Na^+-dependent uptake was defined as the difference in radioactivity accumulated in Na^+-containing buffer and in choline-containing buffer. Protein content was measured and glutamate uptake calculated as nmole glutamate per mg of protein. In some cases, homogenates were examined for EAAT4, GTRAP4-41 and GTRAP 4-48 protein.
In an alternative protocol, HEK-rEAAT4 cells transfected with GTRAP4-41 and GTRAP4-48 were grown in a monolayer on 6-well plates in MEM supplemented with 10% fetal bovine serum and L-glutamine. Assays were conducted about 72 h after transfection using the method of Davis (Davis et al., J Neurosci. 18, 2475-2485 (1998)). […] Glutamate transport was measured by methods described herein.

In the next series the target is T3, Rho (Homo sapiens, UniProt P61586).
T3 construct: made in house; host or cells: bacterial cells
T3 sequence (P61586 whole entry): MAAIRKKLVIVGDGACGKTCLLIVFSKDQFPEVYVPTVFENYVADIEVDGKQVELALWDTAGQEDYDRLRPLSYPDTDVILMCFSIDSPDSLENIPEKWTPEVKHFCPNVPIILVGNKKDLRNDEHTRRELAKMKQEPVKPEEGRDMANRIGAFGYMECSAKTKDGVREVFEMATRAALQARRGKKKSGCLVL
Description: guanine nucleotide exchange assay (GTPγS binding to small G proteins). The class given is biochemical. As to conditions: GST-RhoA, GST-Cdc42 and GST-Rac, 10 min at 30° C. Here is the method:
Guanine nucleotide exchange assay. Small G proteins GST-RhoA, GST-CDC42 and GST-Rac were expressed in bacterial cells and affinity purified to ˜80% purity using a glutathione column. Twenty pmoles of each protein were incubated with 100 pmoles GTPγS for 10 min at 30° C. with varying concentrations of full-length GTRAP4-48 or p115. The binding reactions were filtered through BA-85 nitrocellulose and the amount of GTPγS bound to small G protein was quantitated by scintillation counting of the dried filters. The amount of GTPγS that bound to GST-RhoA, GST-Cdc42 and GST-Rac in the presence of full-length GTRAP4-48 or p115 was measured.
For orientation: GTPγS is a poorly hydrolysed GTP analogue; its binding reports G protein activation.

Take `CC1=C(/C=C/C(C)=C/C=C/C(C)=C/C(=O)O)C(C)(C)CCC1` [Retinoic acid, retinoic acid]: the non-toxic dose range in the series on GTRAP3-18 is 1 to 10 µM.

The Km is the concentration of substrate that gives half-maximal velocity. “GTRAP4-41: glutamate transporter 4 associated protein, 2,388 amino acids (SEQ ID NO:2), 87% identity with β-spectrin III” came in with an EAAT4 protein remaining in the series on EAAT4 [1] of 81±2%. Further, the cerebellar glutamate uptake result in the series on EAAT4 [2] is listed as “elevated”. Further, the “binding to GST-EAAT4 fusion protein” value with GST-EAAT4 is given as “bind”. Further, in the series with EAAT4 [3] (GTRAP co-expressed with EAAT4, EAAT4 alone 7 (GTRAP41 experiment) or 10 (GTRAP48 experiment)), the Km was found to be 11 µM. Also, the “Vmax of glutamate uptake” value with EAAT4 [3] (GTRAP co-expressed with EAAT4, EAAT4 alone 222 (GTRAP41 experiment) or 208 (GTRAP48 experiment)) amounted to 605 pmol/mg/min. Further, the “increase in glutamate transport” value with EAAT4 [3] (HEK-rEAAT4 cells transfected with the GTRAP, vs vector alone) is recorded as “two”.

B1: p115: RhoGEF that selectively activates Rho (protein)
chain: MEDFARGAASPGPSRPGLVPVSIIGAEDEDFENELETNSEEQNSQFQSLEQVKRRPAHLMALLQHVALQFEPGPLLCCLHADMLGSLGPKEAKKAFLDFYHSFLEKTAVLRVPVPPNVAFELDRTRADLISEDVQRRFVQEVVQSQQVAVGRQLEDFRSKRLMGMTPWEQELAQLEAWVGRDRASYEARERHVAERLLMHLEEMQHTISTDEEKSAAVVNAIGLYMRHLGVRTKSGDKKSGRNFFRKKVMGNRRSDEPAKTKKGLSSILDAARWNRGEPQVPDFRHLKAEVDAEKPGATDRKGGVGMPSRDRNIGAPGQDTPGVSLHPLSLDSPDREPGADAPLELGDSSPQGPMSLESLAPPESTDEGAETESPEPGDEGEPGRSGLELEPEEPPGWRELVPPDTLHSLPKSQVKRQEVISELLVTEAAHVRMLRVLHDLFFQPMAECLFFPLEELQNIFPSLDELIEVHSLFLDRLMKRRQESGYLIEEIGDVLLARFDGAEGSWFQKISSRFCSRQSFALEQLKAKQRKDPRFCAFVQEAESRPRCRRLQLKDMIPTEMQRLTKYPLLLQSIGQNTEEPTEREKVELAAECCREILHHVNQAVRDMEDLLRLKDYQRRLDLSHLRQSSDPMLSEFKNLDITKKKLVHEGPLTWRVTKDKAVEVHVLLLDDLLLLLQRQDERLLLKSHSRTLTPTPDGKTMLRPVLRLTSAMTREVATDHKAFYVLFTWDQEAQIYELVAQTVSERKNWCALITETAGSLKVPAPASRPKPRPSPSSTREPLLSSSENGNGGRETSPADARTERILSDLLPFCRPGPEGQLAATALRKVLSLKQLLFPAEEDNGAGPPRDGDGVPGGGPLSPARTQEIQENLLSLEETMKQLEELEEEFCRLRPLLSQLGGNSVPQPGCT
Regarding B1, the “guanine nucleotide exchange activity” value in the series with Rho was “specific guanine nucleotide exchange activity for Rho”.
